Source: article PMC8689142, “Discovery of a Positive Allosteric Modulator of Cholecystokinin Action at CCK1R in Normal and Elevated Cholesterol” (Frontiers in Endocrinology, 2021)
Blank lines part the entries; values can stand above or below the molecule they belong to. Non-standard residues stand in square brackets, D forms with d. No end group written: not given here. Alexa 488 = Alexa Fluor 488 fluorescent dye; Nle = CCCC[C@H](N)C(=O)O

Legend:
[1] = target: human type 1 cholecystokinin receptor (CCK1R), CHO-CCK1R cell line (human) (UniProt P32238)
[2] = target: T1, type 1 cholecystokinin receptor (CCK1R) (Homo sapiens, UniProt P32238); assay: fluorescence polarization kinetics (slowed alexa488-CCK off-rate); calcium assay fitted with operational allosteric model; format: cell-based
T1 construct: gene CCKAR; CHO-CCK1R cells and membranes
T1 sequence (P32238 1-428): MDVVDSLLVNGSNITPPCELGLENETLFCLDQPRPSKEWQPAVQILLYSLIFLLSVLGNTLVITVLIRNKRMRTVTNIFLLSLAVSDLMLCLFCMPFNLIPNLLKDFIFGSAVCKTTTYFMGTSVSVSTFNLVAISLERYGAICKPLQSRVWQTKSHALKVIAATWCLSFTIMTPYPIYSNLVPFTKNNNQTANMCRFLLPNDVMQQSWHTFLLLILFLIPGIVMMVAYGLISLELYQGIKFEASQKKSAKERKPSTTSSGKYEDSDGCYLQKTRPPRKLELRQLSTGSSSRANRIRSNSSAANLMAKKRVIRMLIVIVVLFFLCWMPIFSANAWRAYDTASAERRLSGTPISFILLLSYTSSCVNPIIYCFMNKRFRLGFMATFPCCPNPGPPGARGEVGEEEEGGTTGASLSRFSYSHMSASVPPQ

[3] = target: T2, human type 1 cholecystokinin receptor (CCK1R), CHO-CCK1R cell line (human, UniProt P32238 1-428); assay: fluorescence polarisation; alexa488-CCK (3.2 nM) added to CHO-CCK1R membranes in KRH buffer, pH 7.4, 0.2% bovine serum albumin; dissociation started with 1 µM unlabeled CCK-8; absence of Compound 1; settings: one partner purified
T2 construct: type 1 cholecystokinin receptor, human, wild type; also called human CCK1R; WT CCK1R; source: CHO-K1 cell line stably expressing the receptor (CHO-CCK1R); intact cells and membranes
T2 sequence (looked up): T1 sequence (P32238 1-428)

[4] = target: T3, rat type 1 CCK receptor (rat), P30551
T3 chain: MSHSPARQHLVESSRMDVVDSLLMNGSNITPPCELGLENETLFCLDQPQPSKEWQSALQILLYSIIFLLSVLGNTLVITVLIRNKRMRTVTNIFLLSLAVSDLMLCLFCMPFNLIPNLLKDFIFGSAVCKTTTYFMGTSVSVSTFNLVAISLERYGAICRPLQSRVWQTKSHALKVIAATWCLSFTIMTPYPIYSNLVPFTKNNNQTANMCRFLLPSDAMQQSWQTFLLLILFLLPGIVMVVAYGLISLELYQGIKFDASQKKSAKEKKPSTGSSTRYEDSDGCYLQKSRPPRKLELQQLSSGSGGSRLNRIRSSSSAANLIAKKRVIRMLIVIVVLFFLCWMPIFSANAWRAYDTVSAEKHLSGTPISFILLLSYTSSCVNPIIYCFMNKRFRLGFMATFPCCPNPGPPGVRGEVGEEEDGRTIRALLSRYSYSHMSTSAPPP

[5] = target: Cynomolgus monkey CCK1R (Cynomolgus monkey)
[6] = target: Cynomolgus monkey CCK1R (Cynomolgus monkey); assay: radioligand binding; radioligand competition-binding assay on intact receptor-expressing cells; radioiodinated D-Tyr-Gly-[(Nle28,31)CCK-26-33] as radioligand, unlabeled CCK as competitor; duplicates, at least three independent experiments

pEC50 for CCK, peak intracellular calcium response in CHO cells expressing human CCK1R, + 10 µM Compound 1 [1]: 9.9
pEC50 for CCK, peak intracellular calcium response in CHO cells expressing human CCK1R, control [1]: 9.1
Molecule: Synthetic CCK-58 (peptide)

Molecule: C=C[C@H]1CN2CC[C@H]1C[C@@H]2CNC(=O)Nc1cccc(C(F)(F)F)c1 [Compound 1, 3-[(1S,2R,4S,5R)-5-ethenyl-1-azabicyclo[2.2.2]octan-2-yl]methyl-1-[3-(trifluoromethyl)phenyl]urea]
Kb [2]: 251 µM

koff [3]: 0.0217 s⁻¹
kon [3]: 2.33e+06 M⁻¹ s⁻¹
Molecule: {Alexa 488}-[dY]GDY[Nle]GW[Nle]DF (ends and bridges not checked) [alexa^488-D-Tyr-Gly-[(Nle^28,31)CCK-26-33]]

pEC50 for CCK, peak intracellular calcium response in CHO cells expressing rat CCK1R, + 10 µM Compound 1 [4]: 11.9
pEC50 for CCK, peak intracellular calcium response in CHO cells expressing Cynomolgus monkey CCK1R, control [5]: 11.2
pKi [6]: 8.6
Molecule: DYMGWMDF (modifications not checked) [Synthetic CCK-26-33 (CCK-8)]
